This series deals with RBPMS-A dC20 (rat) (UniProt A0A8I6G705). In words: EMSA. The following applies: apparent; EMSA: 10 nM RNA, 25 mM HEPES pH 7.9, 100 mM KCl, 2 mM MgCl2, 0.625 mM DTT, 0.1 mg/ml BSA, 5% glycerol, 30 C 1 h, then 5 mg/ml heparin 10 min; 5% native PAGE in …. In general terms: Mobility shift assays separate free from complexed probe on a gel.
Chain of RBPMS-A dC20 (rat) (A0A8I6G705 1-177): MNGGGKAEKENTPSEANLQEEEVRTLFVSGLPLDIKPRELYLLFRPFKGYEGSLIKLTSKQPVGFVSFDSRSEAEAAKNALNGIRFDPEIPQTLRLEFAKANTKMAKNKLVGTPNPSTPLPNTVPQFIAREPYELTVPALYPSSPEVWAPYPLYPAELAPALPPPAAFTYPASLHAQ

Take “GUCUACGCACCCUCAACCCGCACCUUGCGGGAUG [(CAC)2]”: the Kd turned out to be 2500 nM.

(Values after PMC10570038.)
